This passage reports derepression of the Gal4 pTK-Luc reporter (compare G4-SirT1 with G4-ΔN-SirT1) results from patent US20070065890A1, “Method for promoting formation of facultative heterochromatin” (priority 2005, published 2007).

The assay concerns the target endogenous histone H1. Kind of assay: cell-based or functional assay.

For “deletion mutant G4-ΔNSirT1 (Δ(1-268)) (from UniProt P04386 1-147)”, the derepression of the Gal4 pTK-Luc reporter (compare G4-SirT1 with G4-ΔN-SirT1) was found to be 20%.
